Experimental data from patent publication US9187525B2, “Methods of treating ophthalmic diseases using NPR-B agonists” (Shire Orphan Therapies GmbH, dated 2015).
Numbered stars: 1 amine (or outer) side, 2 acyl side, 3 side chain; on linkers, the order of the positions; unused ones are H or OH. Square brackets hold non-standard residues; d marks the D form. Ends that are not written are not given here. * marks the point of attachment. Ebe = (R)-2-amino-3-(methylsulfanyl)propanoic acid, CSC[C@H](N[*:1])C(=O)[*:2]; Sni = (S)-nipecotic acid, O=C([C@H]1CCCN([*:1])C1)[*:2]; Phe(3-CF3) = N[C@@H](Cc1cccc(C(F)(F)F)c1)C(=O)O; Azetidine3carboxylic = O=C(C1CN([*:1])C1)[*:2]; Phe(4-Cl) = N[C@@H](Cc1ccc(Cl)cc1)C(=O)O; Phe(3-Me) = Cc1cccc(C[C@H](N)C(=O)O)c1; Hyp = O=C(O)[C@@H]1C[C@@H](O)CN1; NMeF = CN[C@@H](Cc1ccccc1)C(=O)O; 2Thi = N[C@@H](Cc1cccs1)C(=O)O; 3Thi = N[C@@H](Cc1ccsc1)C(=O)O; NMeL = CN[C@@H](CC(C)C)C(=O)O; Tle = CC(C)(C)[C@H](N)C(=O)O; hLeu = CC(C)CC[C@H](N)C(=O)O; dNle = CCCC[C@@H](N)C(=O)O; hSer = N[C@@H](CCO)C(=O)O; Octanoyl = CCCCCCCC(=O)*; Thz = O=C(O)[C@@H]1CSCN1; dAbu = CC[C@@H](N)C(=O)O; dDap = NC[C@@H](N)C(=O)O; Nva = CCC[C@H](N)C(=O)O; Hexanoyl = CCCCCC(=O)*; asn = not defined here; leu = not defined here; nle = not defined here; Occ = octanoic acid

Biological target: T1, natriuretic peptide receptor-B (human)
T1 chain: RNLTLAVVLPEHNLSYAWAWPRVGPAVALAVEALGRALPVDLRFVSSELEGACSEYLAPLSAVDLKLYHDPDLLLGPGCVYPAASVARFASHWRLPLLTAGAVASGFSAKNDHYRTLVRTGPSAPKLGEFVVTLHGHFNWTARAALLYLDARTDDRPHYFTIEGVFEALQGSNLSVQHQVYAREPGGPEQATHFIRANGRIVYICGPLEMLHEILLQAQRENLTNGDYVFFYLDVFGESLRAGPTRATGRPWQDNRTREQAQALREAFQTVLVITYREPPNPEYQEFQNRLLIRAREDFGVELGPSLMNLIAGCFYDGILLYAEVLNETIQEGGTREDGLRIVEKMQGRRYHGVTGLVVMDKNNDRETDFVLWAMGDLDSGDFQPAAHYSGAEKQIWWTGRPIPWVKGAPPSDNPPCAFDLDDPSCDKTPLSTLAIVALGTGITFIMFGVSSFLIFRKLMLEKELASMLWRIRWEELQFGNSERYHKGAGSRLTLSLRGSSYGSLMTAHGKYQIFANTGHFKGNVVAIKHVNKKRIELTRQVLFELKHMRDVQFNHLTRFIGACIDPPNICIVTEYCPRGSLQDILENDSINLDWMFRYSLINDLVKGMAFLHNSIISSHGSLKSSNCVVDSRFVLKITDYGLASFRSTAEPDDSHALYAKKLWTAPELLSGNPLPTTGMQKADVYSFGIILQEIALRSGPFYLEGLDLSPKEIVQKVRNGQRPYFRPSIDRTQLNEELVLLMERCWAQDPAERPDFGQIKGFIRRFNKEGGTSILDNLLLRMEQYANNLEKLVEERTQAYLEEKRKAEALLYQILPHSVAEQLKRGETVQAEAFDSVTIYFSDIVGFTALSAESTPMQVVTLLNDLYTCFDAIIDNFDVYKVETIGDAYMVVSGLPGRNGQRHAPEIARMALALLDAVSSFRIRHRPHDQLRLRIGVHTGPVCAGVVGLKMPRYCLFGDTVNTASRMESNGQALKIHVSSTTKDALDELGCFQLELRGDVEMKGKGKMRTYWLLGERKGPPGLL
Experiment: cell-based or functional assay

Hexanoyl-S[dA]FGLKLDRISS-NH2 [JAL-0535]
EC50 group, cGMP in GTM-3 cells: ≤ 15 µM

B1: JAL-1003 (peptide)
peptide: [Occ]A[3Thi]GLPLDRI-NH2
modifications: not fully specified (residue 2); printed as Occ-ala-Thk-Gly-Leu-Pro-Leu-Asp-Arg-Ile-NH2
EC50 group, cGMP in GTM-3 cells: ≤ 15 µM

B2: JAL-0989 (peptide)
peptide: [Occ]AFGLPLDR[Tle]-NH2
modifications: not fully specified (residue 2); printed as Occ-ala-Phe-Gly-Leu-Pro-Leu-Asp-Arg-Tbg-
EC50 group, cGMP in GTM-3 cells: ≤ 15 µM

B3: JAL-1011 (peptide)
peptide: [Occ]AFTLPLDRI-NH2
modifications: not fully specified (residues 2, 4); printed as Occ-ala-Phe-thr-Leu-Pro-Leu-Asp-Arg-Ile-NH2
EC50 group, cGMP in GTM-3 cells: ≤ 5 µM

B4: JAL-1012 (peptide)
peptide: [Occ]AFVLPLDRI-NH2
modifications: not fully specified (residues 2, 4); printed as Occ-ala-Phe-val-Leu-Pro-Leu-Asp-Arg-Ile-NH2
EC50 group, cGMP in GTM-3 cells: ≤ 15 µM

Hexanoyl-[Ebe][dP]FGLKIDRIS[Ebe]-NH2 [JAL-0534]
EC50 group, cGMP in GTM-3 cells: ≤ 15 µM

[Occ][Sni]FGL[Hyp][NMeL]DRI-NH2 [JAL-1015]
EC50 group, cGMP in GTM-3 cells: ≤ 5 µM

B5: JAL-0996 (peptide)
peptide: [Occ]AFG[Nva]PLDRI-NH2
modifications: not fully specified (residue 2); printed as Occ-ala-Phe-Gly-Nva-Pro-Leu-Asp-Arg-Ile-NH2
EC50 group, cGMP in GTM-3 cells: ≤ 15 µM

B6: JAL-1000 (peptide)
peptide: [Occ]A[2Thi]GLPLDRI-NH2
modifications: not fully specified (residue 2); printed as Occ-ala-Thi-Gly-Leu-Pro-Leu-Asp-Arg-Ile-NH2
EC50 group, cGMP in GTM-3 cells: ≤ 15 µM

B7: JAL-1014 (peptide)
peptide: [Occ]AF[nle]LPLDRI-NH2
modifications: not fully specified (residue 2); printed as Occ-ala-Phe-nle-Leu-Pro-Leu-Asp-Arg-Ile-NH2; reading uncertain
EC50 group, cGMP in GTM-3 cells: ≤ 5 µM

B8: JAL-1017 (peptide)
peptide: [Occ]AF[asn]LPLDRI-NH2
modifications: not fully specified (residue 2); printed as Occ-ala-Phe-asn-Leu-Pro-Leu-Asp-Arg-Ile-NH2; reading uncertain
EC50 group, cGMP in GTM-3 cells: ≤ 5 µM

B9: JAL-0992 (peptide)
peptide: [Occ]AFGLPLSRI-NH2
modifications: not fully specified (residue 2); printed as Occ-ala-Phe-Gly-Leu-Pro-Leu-Ser-Arg-Ile-NH2
EC50 group, cGMP in GTM-3 cells: ≤ 15 µM

B10: JAL-0998 (peptide)
peptide: [Occ]AFG[hLeu]PLDRI-NH2
modifications: not fully specified (residue 2); printed as Occ-ala-Phe-Gly-Hle-Pro-Leu-Asp-Arg-Ile-NH2
EC50 group, cGMP in GTM-3 cells: ≤ 15 µM

B11: JAL-0980 (peptide)
peptide: [Occ]AFGL[Thz]LDRI-NH2
modifications: not fully specified (residue 2); printed as Occ-ala-Phe-Gly-Leu-Eaz-Leu-Asp-Arg-Ile-NH2
EC50 group, cGMP in GTM-3 cells: ≤ 15 µM

Octanoyl-[dA]F[dAbu]LPLDRI-NH2 [JAL-1019]
EC50 group, cGMP in GTM-3 cells: ≤ 5 µM

B12: JAL-0995 (peptide)
peptide: [Occ]AFGIPLDRI-NH2
modifications: not fully specified (residue 2); printed as Occ-ala-Phe-Gly-Ile-Pro-Leu-Asp-Arg-Ile-NH2
EC50 group, cGMP in GTM-3 cells: ≤ 15 µM

B13: JAL-1005 (peptide)
peptide: [Occ]A[Phe(3-CF3)]GLPLDRI-NH2
modifications: not fully specified (residue 2); printed as Occ-ala-Mtf-Gly-Leu-Pro-Leu-Asp-Arg-Ile-NH2
EC50 group, cGMP in GTM-3 cells: ≤ 15 µM

B14: JAL-0993 (peptide)
peptide: [Occ]AFGLPL[hSer]RI-NH2
modifications: not fully specified (residue 2); printed as Occ-ala-Phe-Gly-Leu-Pro-Leu-Hse-Arg-Ile-NH2
EC50 group, cGMP in GTM-3 cells: ≤ 15 µM

Octanoyl-[Sni][NMeF][dNle]LPLDRI-NH2 [JAL-1022]
EC50 group, cGMP in GTM-3 cells: ≤ 5 µM

B15: JAL-1002 (peptide)
peptide: [Occ]A[Phe(4-Cl)]GLPLDRI-NH2
modifications: not fully specified (residue 2); printed as Occ-ala-Pcf-Gly-Leu-Pro-Leu-Asp-Arg-Ile-NH2
EC50 group, cGMP in GTM-3 cells: ≤ 15 µM

Octanoyl-[Sni]F[dNle]LPLDRI-NH2 [JAL-1021]
EC50 group, cGMP in GTM-3 cells: ≤ 5 µM

B16: JAL-1016 (peptide)
peptide: [Occ]AFGL[Hyp][NMeL]DRI-NH2
modifications: not fully specified (residue 2); printed as Occ-ala-Phe-Gly-Leu-Hyp-Nml-Asp-Arg-Ile-
EC50 group, cGMP in GTM-3 cells: ≤ 5 µM

[Occ][Azetidine3carboxylic]FGLPLDRI-NH2 [JAL-0985]
EC50 group, cGMP in GTM-3 cells: ≤ 15 µM

Octanoyl-[dA]F[dM]LPLDRI-NH2 [JAL-1018]
EC50 group, cGMP in GTM-3 cells: ≤ 5 µM

B17: JAL-1006 (peptide)
peptide: [Occ]A[Phe(3-Me)]GLPLDRI-NH2
modifications: not fully specified (residue 2); printed as Occ-ala-Mmf-Gly-Leu-Pro-Leu-Asp-Arg-Ile-NH2
EC50 group, cGMP in GTM-3 cells: ≤ 15 µM

B18: JAL-1010 (peptide)
peptide: [Occ]AFSLPLDRI-NH2
modifications: not fully specified (residues 2, 4); printed as Occ-ala-Phe-ser-Leu-Pro-Leu-Asp-Arg-Ile-NH2
EC50 group, cGMP in GTM-3 cells: ≤ 5 µM

Octanoyl-[dA]F[dDap]LPLDRI-NH2 [JAL-1020]
EC50 group, cGMP in GTM-3 cells: ≤ 5 µM

Hexanoyl-A[dA]FGLKLDRISA-NH2 [JAL-0536]
EC50 group, cGMP in GTM-3 cells: ≤ 5 µM

B19: JAL-1013 (peptide)
peptide: [Occ]AF[leu]LPLDRI-NH2
modifications: not fully specified (residue 2); printed as Occ-ala-Phe-leu-Leu-Pro-Leu-Asp-Arg-Ile-NH2; reading uncertain
EC50 group, cGMP in GTM-3 cells: ≤ 5 µM
